Changes are numbered by the printed parent chain. Numbers in names are those of the source.

Broadly, the Kd is the free concentration of one partner at which half of the binding sites on the other are occupied at equilibrium, for simple one-to-one binding.

First the molecules themselves.
B1: IL-2 mutant M6 (V69A, Q74P, I128T) (ligand, not shown: small tags and cut ends)
chain: APTSSSTKKTQLQLEHLLLDLQMILNGINNYKNPKLTRMLTFKFYMPKKATELKHLQCLEEELKPLEEALNLAPSKNFHLRPRDLISNINVIVLELKGSETTFMCEYADETATIVEFLNRWITFSQSTISTLT
notes: Soluble form secreted from yeast
B2: IL-2 mutant 1a-1 (ligand, not shown: small tags and cut ends)
chain: B1 chain with N30S, E68D, N71A, S75P, K76R, N90H, T128I
notes: also called N31610-01_
B3: IL-2 mutant 2-4 (ligand, not shown: small tags and cut ends)
chain: B1 chain with N29S, Y31H, K35R, T37A, K48E, N71R, N88D, I89V, T128I
notes: also called N31618-14_; N31610-14_
B4: IL-2 mutant 1b-8 (ligand, not shown: small tags and cut ends)
chain: B1 chain with K8R, Q13R, N26D, N30T, K35R, T37R, I92T, T128I
notes: also called N31618-08_
B5: IL-2 mutant WC9 (ligand, not shown: small tags and cut ends)
chain: B1 chain with S4P, T10A, Q11R, N88D, T128I, T133A
notes: also called N31610-18_
B6: IL-2 mutant WE3 (ligand, not shown: small tags and cut ends)
chain: B1 chain with N30S
notes: also called N31610-25_

The target of one test is T1, IL-2Rα on the surface of KIT225 or F15R-Kit cells (human, UniProt P01589 22-272).
T1 construct: whole, on cells; KIT225 cells also carry some IL-2Rβ and IL-2Rγ; also called IL-2 receptor α subunit; p55
T1 sequence (looked up): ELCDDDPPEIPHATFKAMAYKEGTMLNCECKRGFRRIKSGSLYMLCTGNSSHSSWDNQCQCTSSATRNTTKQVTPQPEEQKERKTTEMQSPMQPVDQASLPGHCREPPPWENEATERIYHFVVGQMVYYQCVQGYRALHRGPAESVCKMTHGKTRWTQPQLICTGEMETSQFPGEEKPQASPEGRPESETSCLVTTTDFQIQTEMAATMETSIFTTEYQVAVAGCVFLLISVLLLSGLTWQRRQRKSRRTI
The test can be described thus: flow cytometry on KIT225 cells, 37 C; the reference value is cited from the literature. For orientation: Flow cytometry measures light scatter and fluorescence of single cells or particles in a stream.
On to B1, for which the “fold improvement in binding affinity relative to a wild-type Kd value of 28 nM (literature)” value was at least 30 fold.

In a further test the target is T2, IL-2Rβ on YT-2C2 cells (human, UniProt P14784 27-551).
T2 construct: whole, on cells; YT-2C2 cells express about 20,000 IL-2Rβγ, so IL-2Rγ is also present; also called p75
T2 sequence (looked up): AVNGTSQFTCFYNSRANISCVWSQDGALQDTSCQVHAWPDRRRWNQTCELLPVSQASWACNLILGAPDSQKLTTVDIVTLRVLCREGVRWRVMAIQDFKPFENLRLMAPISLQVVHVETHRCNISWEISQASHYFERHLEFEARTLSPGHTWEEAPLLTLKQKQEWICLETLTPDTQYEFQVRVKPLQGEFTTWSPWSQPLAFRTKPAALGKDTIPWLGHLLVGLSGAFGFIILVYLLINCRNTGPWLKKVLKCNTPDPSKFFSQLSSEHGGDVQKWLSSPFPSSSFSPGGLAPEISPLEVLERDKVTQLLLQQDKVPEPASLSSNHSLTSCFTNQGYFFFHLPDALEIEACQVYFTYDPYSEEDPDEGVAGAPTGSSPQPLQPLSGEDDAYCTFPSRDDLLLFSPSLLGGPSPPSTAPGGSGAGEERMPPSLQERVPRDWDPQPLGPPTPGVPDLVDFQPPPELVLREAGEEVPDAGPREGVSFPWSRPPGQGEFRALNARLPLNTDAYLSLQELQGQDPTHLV
The test can be described thus: flow cytometry on YT-2C2 cells, on ice, anti-FLAG detection, global fit.
In turn, B1 came in with a Kd of 210 nM. In other words, the sub-micromolar range.

The target in a further test is T3, IL-15Rα on F15R-Kit cells (UniProt Q13261 31-267).
T3 construct: whole, on cells
T3 sequence (Q13261 31-267, stated change not applied): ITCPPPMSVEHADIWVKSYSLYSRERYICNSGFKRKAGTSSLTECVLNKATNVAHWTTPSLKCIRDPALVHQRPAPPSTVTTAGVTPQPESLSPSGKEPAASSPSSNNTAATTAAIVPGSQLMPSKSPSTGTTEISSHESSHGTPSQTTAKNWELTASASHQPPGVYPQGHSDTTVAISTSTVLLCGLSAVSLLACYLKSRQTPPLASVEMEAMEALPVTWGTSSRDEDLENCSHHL
The test can be described thus: flow cytometry on F15R-Kit cells.
For B1, the binding result is “no binding”.

For B2, the binding result was “no binding”.

As to B3, the binding result is reported as “no binding”.

Regarding B4, the binding result is “no binding”.

Regarding B5, the binding result is “no binding”.

For B6, the binding result is “no binding”.

In the next test the target is T1, IL-2Rα on the surface of KIT225 or …. The test can be described thus: flow cytometry on F15R-Kit cells, 30 min at 37 C, pH 7.4. On the procedure: (pH 7.4). Cell surface bound protein was measured using flow cytometry. Data from two different experiments (FIG. 12) were used to estimate Kd values.
B1 came in with a Kd of 1.22 nM. This lies in the single-digit nanomolar range.

With B2, the Kd amounted to 0.254 nM.

Molecule B3 came in with a Kd of 0.18 nM.

B4 registered a Kd of 0.409 nM.

As for B5, the Kd was 1.58 nM.

Take B6: the dissociation constant (Kd) was determined as 0.778 nM.

For another test the target is unchanged. The test can be described thus: flow cytometry on KIT225 cells, 37 C, anti-FLAG detection. From the text:
Cells were washed with ice-cold PBS, pH 7.4, containing 0.1% bovine serum albumin (BSA) and labeled with a biotinylated antibody against the FLAG epitope followed by streptavidin-phycoerythrin on ice. We washed the cells again and determined mean single cell fluorescence using an EPICS-XL flow cytometer.
As to B1, the Kd was about 1 nM.

For the origin of these results see patent US20050142106A1 (MIT, published 2005).
